Measured values reported in paper PMC12433258, “Binding Differences of the Peptide‐Substrate–Binding Domain of Collagen Prolyl 4‐Hydroxylases I and II for Proline‐ and Hydroxyproline‐Rich Peptides” (Proteins, 2025).

B1: (Pro)9 peptide (peptide)
peptide: PPPPPPPPP
notes: polyproline peptide of 9 residues, free amino and free carboxylate ends; printed as (Pro)9; also called P9; source: synthetic peptide; bought: TAG Copenhagen A/S
B2: PPG‐PPG‐PPG peptide (peptide)
peptide: PPGPPGPPG
notes: collagen-like model peptide, 9 residues, free amino and free carboxylate ends; also called (PPG)3; source: synthetic peptide; bought: TAG Copenhagen A/S
B3: PPG‐PAG‐PPG peptide (peptide)
peptide: PPGPAGPPG
notes: collagen-like model peptide, 9 residues, free amino and free carboxylate ends; also called PxGP‐peptide; source: synthetic peptide; bought: TAG Copenhagen A/S
B4: PPG‐PRG‐PPG peptide (peptide)
peptide: PPGPRGPPG
notes: as for B3
B5: PPG‐PEG‐PPG peptide (peptide)
peptide: PPGPEGPPG
notes: as for B3
B6: PSB‐I^144–244 construct (longer PSB‐I construct of human C‐P4H‐I α‐subunit) (domain or fragment)
chain: FLTAEDCFELGKVAYTEADYYHTELWMEQALRQLDEGEISTIDKVSVLDYLSYAVYQQGDLDKALLLTKKLLELDPEHQRANGNLKYFEYIMAKEKDVNKSLEHHHHHH
notes: numbers count on: the mature protein (α-I subunit after cleavage of the signal peptide); C-terminal Leu-Glu-(His)6 tag; The C-terminal Leu-Glu-His6 tag is kept and is written as a part, not under tags; also called longer PSB‐I^144–244 variant

Columns and labels:
[1] = target: T1, PSB‐I^143–238 construct (peptide‐substrate–binding domain of the α‐I subunit of human collagen prolyl … (human, UniProt P13674 160-255)); assay: ITC; 3 mM peptide titrated into 50 μM PSB‐I^143–238 in the cell; 20 mM Bis‐Tris, 100 mM glycine, pH 6.8; 25°C; one‐set‐of‐sites model with fixed stoichiometry (n = 1); three measurements; conditions: both partners purified
T1 construct: numbers count on: the mature protein (α-I subunit after cleavage of the signal peptide); Monomer by SEC-MALS; also called PSB‐I construct; PSB‐I domain; source: E. coli Rosetta(DE3)pLysS, pET22b(+), purified (Ni‐NTA, Superdex75 SEC); not shown: Leu-Glu-His6, C-terminal, kept
T1 sequence (P13674 160-255): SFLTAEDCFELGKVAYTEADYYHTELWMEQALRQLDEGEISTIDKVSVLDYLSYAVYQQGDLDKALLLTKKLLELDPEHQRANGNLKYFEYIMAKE

[2] = target: the molecule itself; assay: crystal structure; PSB‐I^144–244 crystallized without peptide, hanging drop, 4°C; 1 M sodium citrate, 0.1 M CHES, pH 9.5; contact between crystallographically related chains

| Binder | Kd [1] [µM] | dH [1] [kcal/mol] | binding result [2] |
| --- | --- | --- | --- |
| B1 | 80.9 | -9.5 |  |
| B2 | 309 | -13.6 |  |
| B3 | 91.3 | -12.4 |  |
| B4 | 37 | -14.9 |  |
| B5 | 84.3 | -13.2 |  |
| B6 |  |  | binds |
